Test results published in US20030087317.

Sequence of human NIM1 kinase-GST (recombinant Nim1-GST, expressed in Sf21 insect cells from pVL1392/GST-NIM1) (chain, as listed by the source): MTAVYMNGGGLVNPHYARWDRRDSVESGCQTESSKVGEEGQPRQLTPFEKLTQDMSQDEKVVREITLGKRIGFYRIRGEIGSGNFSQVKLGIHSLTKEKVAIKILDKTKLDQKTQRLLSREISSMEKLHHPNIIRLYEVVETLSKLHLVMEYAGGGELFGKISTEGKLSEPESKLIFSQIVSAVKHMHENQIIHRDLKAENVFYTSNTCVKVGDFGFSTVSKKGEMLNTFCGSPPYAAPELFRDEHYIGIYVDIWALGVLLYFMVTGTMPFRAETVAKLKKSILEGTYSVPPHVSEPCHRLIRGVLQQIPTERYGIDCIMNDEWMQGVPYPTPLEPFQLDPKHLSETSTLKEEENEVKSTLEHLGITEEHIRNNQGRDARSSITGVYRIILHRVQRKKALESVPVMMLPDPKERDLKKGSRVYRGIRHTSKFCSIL

human NIM1 kinase-GST (recombinant Nim1-GST, expressed in Sf21 insect cells from pVL1392/GST-NIM1)
phosphorylation of substrate in in vitro kinase assay ([gamma-32P]-ATP, SDS-PAGE, autoradiography) (myelin basic protein): phosphorylated its substrates MBP, lane 2, and HIST. 1, lane 4
phosphorylation of substrate in in vitro kinase assay ([gamma-32P]-ATP, SDS-PAGE, autoradiography) (histone): phosphorylated its substrates MBP, lane 2, and HIST. 1, lane 4
